Laboratory results as given in US20230250176A1 (DRAGONFLY THERAPEUTICS, published 2023).

What was measured:
[1] = target: T1, human EGFR (wild type) on cells (human, UniProt P00533 25-1210); assay: flow cytometry, NCI-H2172 cells
T1 construct: whole, on cells; also called EGFRwt

[2] = target: purified recombinant rat EGFR (rat, UniProt A0ABK0LZB0 35-651); assay: SPR (Biacore 8K), 37 C
[3] = target: T1, human EGFR (wild type) on cells; assay: cell-based or functional assay
[4] = target: T1, human EGFR (wild type) on cells; assay: flow cytometry, HT29 cells
[5] = target: T2, purified recombinant human EGFR (human, UniProt P00533 25-645); assay: SPR (Biacore 8K), 37 C
T2 construct: the whole entry is named; also called recombinant human epidermal growth factor receptor

[6] = target: T3, purified recombinant human FcγRIIa H131 (human, UniProt P12318 36-218, limits assumed); assay: SPR (Biacore 8K), 25 C
T3 sequence (looked up): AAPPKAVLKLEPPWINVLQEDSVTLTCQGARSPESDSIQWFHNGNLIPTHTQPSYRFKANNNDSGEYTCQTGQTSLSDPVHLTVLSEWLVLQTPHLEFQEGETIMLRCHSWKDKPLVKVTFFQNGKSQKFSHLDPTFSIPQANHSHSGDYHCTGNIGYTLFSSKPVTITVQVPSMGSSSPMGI

[7] = target: T4, purified recombinant human FcγRIIIa V158 (human, UniProt P08637 17-208); assay: SPR (Biacore 8K), 25 C
T4 construct: also called human CD16 V158; CD16a

[8] = target: purified recombinant human FcγRI (human, UniProt P12314 16-288, limits assumed); assay: SPR (Biacore 8K), 25 C
[9] = target: T1, human EGFR (wild type) on cells; assay: flow cytometry, NCI-H292 cells
[10] = target: T5, purified recombinant human NKG2D (human, UniProt P26718 78-216, limits assumed); assay: SPR (Biacore 8K), 25 C
T5 sequence (looked up): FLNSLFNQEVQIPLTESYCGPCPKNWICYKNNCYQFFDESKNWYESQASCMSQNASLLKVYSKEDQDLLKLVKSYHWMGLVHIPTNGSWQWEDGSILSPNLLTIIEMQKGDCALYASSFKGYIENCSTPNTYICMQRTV

[11] = target: T1, human EGFR (wild type) on cells; assay: cell-based or functional assay; remark: listed apart in the source
[12] = target: T6, human EGFR T790M, L858R on NCI-H1975 cells (human, UniProt P00533 25-1210); assay: cell-based or functional assay
[13] = target: T1, human EGFR (wild type) on cells; assay: cell-based or functional assay; remark: listed apart in the source
[14] = target: T6, human EGFR T790M, L858R on NCI-H1975 …; assay: cell-based or functional assay; remark: listed apart in the source
[15] = target: T7, human EGFR L747-E749del, A750P on HCC4006 cells (human, UniProt P00533 25-1210); assay: flow cytometry, HCC4006 cells
T7 construct: whole, on cells; The deletion L747-E749 cannot be written as a substitution; it stands under detail; also called EGFRmut L747-E749del, A750P

[16] = target: T1, human EGFR (wild type) on cells; assay: flow cytometry, BT474 cells
[17] = target: T1, human EGFR (wild type) on cells; assay: cell-based or functional assay; remark: listed apart in the source
[18] = target: T6, human EGFR T790M, L858R on NCI-H1975 …; assay: cell-based or functional assay; remark: listed apart in the source
[19] = target: T8, cynomolgus monkey EGFR on primary cynomolgus monkey esophageal epithelial cells (cynomolgus monkey, UniProt A0A2K5WK39 25-1210); assay: flow cytometry on primary cynomolgus monkey esophageal epithelial cells, anti-human Fc-PE secondary
T8 construct: whole, on cells; also called cynomolgus monkey EGFR-expressing cells

[20] = target: T9, human NKG2D on cells (human, UniProt P26718 1-216); assay: flow cytometry with AF647-conjugated test article on KHYG-1 parental cells (NKG2D, no CD16a); KHYG-1 parental cell line (NKG2D+, CD16a-), titrated from 800 nM
T9 construct: whole, on cells; also called NKG2D on KHYG-1 parental cells; NKG2D on CD8+ T cells and NK cells
T9 sequence (looked up): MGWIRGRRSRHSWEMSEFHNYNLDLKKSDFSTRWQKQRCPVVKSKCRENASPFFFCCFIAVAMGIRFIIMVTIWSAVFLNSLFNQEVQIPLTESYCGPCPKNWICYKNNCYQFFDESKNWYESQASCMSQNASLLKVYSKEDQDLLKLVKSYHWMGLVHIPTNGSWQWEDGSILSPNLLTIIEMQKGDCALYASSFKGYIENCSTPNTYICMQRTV

[21] = target: T1, human EGFR (wild type) on cells; assay: flow cytometry, FaDu cells
[22] = target: T1, human EGFR (wild type) on cells; assay: flow cytometry, HCT116 cells

B1: EGFR-TriNKET (bispecific antibody, human IgG1, kappa)
chain: DIQMTQSPSSLSASVGDRVTITCQASQDISNYLNWYQQKPGKAPKLLIYDASNLETGVPSRFSGSGSGTDFTFTISSLQPEDIATYYCQHFRHLPLAFGCGTKVEIKGGGGSGGGGSGGGGSGGGGSQVQLQESGPGLVKPSETLSLTCTVSGGSVSSGDYYWTWIRQSPGKCLEWIGHIYYSGNTNYNPRLKSRLTISIDTSKTQFSLKLSSVTAADTAIYYCVRDRVTGAFDIWGQGTMVTVSSGSDKTHTCPPCPAPELLGGPSVFLFPPKPKDTLMISRTPEVTCVVVDVSHEDPEVKFNWYVDGVEVHNAKTKPREEQYNSTYRVVSVLTVLHQDWLNGKEYKCKVSNKALPAPIEKTISKAKGQPREPRVYTLPPCRDELTKNQVSLTCLVKGFYPSDIAVEWESNGQPENNYKTTPPVLVSDGSFTLYSKLTVDKSRWQQGNVFSCSVMHEALHNHYTQKSLSLSPG
heavy: EVQLVESGGGLVKPGGSLRLSCAASGFTFSSYSMNWVRQAPGKGLEWVSSISSSSSYIYYADSVKGRFTISRDNAKNSLYLQMNSLRAEDTAVYYCARGAPIGAAAGWFDPWGQGTLVTVSSASTKGPSVFPLAPSSKSTSGGTAALGCLVKDYFPEPVTVSWNSGALTSGVHTFPAVLQSSGLYSLSSVVTVPSSSLGTQTYICNVNHKPSNTKVDKKVEPKSCDKTHTCPPCPAPELLGGPSVFLFPPKPKDTLMISRTPEVTCVVVDVSHEDPEVKFNWYVDGVEVHNAKTKPREEQYNSTYRVVSVLTVLHQDWLNGKEYKCKVSNKALPAPIEKTISKAKGQPREPQVCTLPPSRDELTENQVSLTCLVKGFYPSDIAVEWESNGQPENNYKTTPPVLDSDGSFFLYSWLTVDKSRWQQGNVFSCSVMHEALHNHYTQKSLSLSPG
light: DIQMTQSPSSVSASVGDRVTITCRASQGISSWLAWYQQKPGKAPKLLIYAASSLQSGVPSRFSGSGSGTDFTLTISSLQPEDFATYYCQQGVSFPRTFGGGTKVEIKRTVAAPSVFIFPPSDEQLKSGTASVVCLLNNFYPREAKVQWKVDNALQSGNSQESVTEQDSKDSTYSLSSTLTLSKADYEKHKVYACEVTHQGLSSPVTKSFNRGEC
notes: also called EGFR-TriNKET-3
[1]
  EC50: 1 nM
  Max FOB: 140 fold over background
[2]
  binding result: no binding
[3]
  EC50, NK-dependent inhibition at 72 hours, HT29 tumor cells: 0.063 nM
[4]
  EC50: 1.3 nM
  Max FOB: 340 fold over background
[5]
  fold weaker affinity than panitumumab: 4.7 fold
[6]
  Kd: 1000 nM
[7]
  Kd: 53.8 nM
  koff: 0.011 s⁻¹
  kon: 200000 M⁻¹ s⁻¹
[8]
  Kd: 5.6 nM
  koff: 0.00024 s⁻¹
  kon: 42000 M⁻¹ s⁻¹
[9]
  EC50: 5.3 nM
  Max FOB: 800 fold over background
[10]
  Kd: 482 nM
  koff: 0.11 s⁻¹
  kon: 230000 M⁻¹ s⁻¹
[11]
  EC50, NK cell degranulation and cytokine production, human PBMCs with 786-O: 0.089 nM
[12]
  EC50, NK cell degranulation and cytokine production, human PBMCs with NCI-H1975: 0.067 nM
[13]
  EC50, long-term NK cell-mediated cytotoxicity (IncuCyte, 72 h, 50% human serum), KYSE-30, NK CD16a F/F (n = 2): 0.015 nM
  EC50, long-term NK cell-mediated cytotoxicity, 786-O, NK CD16a F/F (n = 2): 0.24 nM
  EC50, long-term NK cell-mediated cytotoxicity, 786-O, NK CD16a V/F (n = 1): 0.15 nM
  EC50, long-term NK cell-mediated cytotoxicity, HCT116, NK CD16a F/F (n = 2): 0.28 nM
  EC50, long-term NK cell-mediated cytotoxicity, HCT116, NK CD16a V/V (n = 1): 0.21 nM
  EC50, long-term NK cell-mediated cytotoxicity, KYSE-30, NK CD16a V/F (n = 1): 0.013 nM
[14]
  EC50, long-term NK cell-mediated cytotoxicity, NCI-H1975, NK CD16a F/F (n = 2): 0.23 nM
  EC50, long-term NK cell-mediated cytotoxicity, NCI-H1975, NK CD16a V/F (n = 1): 0.09 nM
[15]
  EC50: 1.8 nM
  Max FOB: 160 fold over background
[16]
  EC50: 0.77 nM
  Max FOB: 41 fold over background
[17]
  EC50, ADCP by M0 macrophages, 786-O: 2.2 nM
[18]
  EC50, ADCP by M0 macrophages, NCI-H1975: 2.3 nM
[19]
  EC50: 1.09 nM
[20]
  EC50: > 600 nM
[21]
  EC50: 11 nM
  Max FOB: 1200 fold over background
[22]
  EC50: 1.4 nM
  Max FOB: 300 fold over background
